Molecular target: Recombinant SARS-CoV-2 Spike protein antigen (Z03501, Genscript) (SARS-CoV-2) (UniProt P0DTC2)

Monoclonal antibody against the SARS-CoV-2 Spike protein (A02038, Genscript)
Kd: 2.39 nM | koff: 0.000603 s⁻¹ | kon: 252000 M⁻¹ s⁻¹
